The nature of this data set: protease stability score; higher = more stable; yeast display proteolysis, trypsin and chymotrypsin.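 Further: relative to predicted unfolded state with 0 unfolded-like and 1 meaning tenfold more protease.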
Turning to “SETKKLWKDLADEVLRAWETGNEEEMEKMLDPHTRLHIHINGRDFHAHGRENIIRMMKFTLDFLGIDHFILRRVTYINGVVHIHQQVIINGQESNVRLEVEIIDGVWHEISVDIH”, the protease stability score turned out to be 1.44. The sequence “SETREDTRELVESFLNALRTGDEDLLRRLMDPHVKVYFNGREFHGRELATRVESHLRVHDIDVRDMRIIGDKVIIDLQVDGEWDGVRFHRETELHTQKVNGRWFIREIRIH” registered a protease stability score of 2.23.

Take “SETREIEEEWLRMMFENFITGDWKEIYKYADPNMRFTLSIGEKQERRHGRESMFHAFRRLEEDLGAKHVRLEDSTVYNGRVEINITLEDGDKHINRYIHIQVVNGRMHTIEVSFR”: the protease stability score was found to be 0.628. Sequence “SEVAEVAREIVEIITKREYTGDEKTLDRMMDPNVRVEIGDWEIIGRDIYQKFVIELRVKDMHVRFKDVRVQGDFAFQDTELRMHGIIDGKDRETSHDTHWVFYKVDGRWLVHSIHIK” showed a protease stability score of 1.3. Regarding “SEVDEQAEHMSRLYLKLIKTGDEEHLMHLADPHTRLDINGKTFIGMEVVHEFNEKERRRVPNMRIHEKSVKVEVFDGRAFTEIHGEWHFDGVTQEIRIEVRIDKVNGRWTIRSVHVEIR”, the protease stability score was 0.704. Sequence “SEVEDFLHEFVRKLVRVLDTGDWEVLEKMFDPNTRFHIGDKELHGREEFVKFTEELGIRVRWELKDIRFQGDKAETIGTERVDFNGKEITTDVTFEVLLFNGVIKEIRIRRR” had a protease stability score of 1.36.

“SEVEEDIRKWLKEHTDSIRTGDEERMLRNMDPHVRVDIDGVEHHGWEHLEEFIHRLTKKIKNMRVDWHRVRFQGDKAEIDGELDIDGRVTHVHIHSIKVDGRWYIKEIYIT”: the protease stability score stood at 1.24. Turning to “SEVEEDTKRVLELLRESWKTGDEHSIKEMLDPNVKILVGDKEFHGMEDWHRIYKRFDYISIRHVRLKDSRHINGVVYLIIHIESEYRIGDKTTEKRYDASIINEKVDGRWIIRSIEIH”, the protease stability score was 1.91. As for “SEVEEEMEEILKKLLTAFRTGDEKTLEDLLDPHVRLEIGDKTHVGWRDIAEFLRRHIERVDHMRINIDHMEIQGEKIHIDGTLHFWIGDKRHHEKVHLIFVIVNGRLKKIHIHKI”, the protease stability score was found to be 2.64. “SEVEEEMKRRVELLIRLLLTGDEDTFDSNADPDTRVVIRQGDFRVENHGRELMLHHLRELGIKVTELHLREIRIQGDWAHVNIQEHIEVDGRLESRTIHLHFFLVDGKVKSWEIEVR”: the protease stability score was found to be 1.27. The figure for “SEVEEEMTRIADILLRVTKTGDWEEMRDLIDPDARMIIDIDGREHINVGREDLARSLKRLRDHLGVKVWDYHHISVIGDKIHIETQQRFNGQDVTTRNEWTVINGKLKEMRLIIH” is 2.02; for “SEVEEFVKRVIHLFHKAFLTGDEHTLIELIDPNARYDVDGRDVHGREIIVEFISTMWRDRGIRIKHVHIEERRYINGRIEIHSKIDVTIGDKREHLETSMIWVKINGQWFIEILIVR” it is 0.233. The sequence “SEVEELSRRVAEFTWEVLRTGDERLLREMIDPNVRMEIDGQEYHGMELLVEHWIKLHQKFPNLKLHLREVRVIDGVAHVRLEVRFNGVRLEIEVVITKINGRWSNTFVHETDR” yielded a protease stability score of 1.13.

“SEVEERFKEEMHRQFENSETGNEDEVAKYFDPDARMHIDGKEIHGRDEVKRILSEWRLTHITLRDFRIVGNKIHTDAEVVIEIGDKKIRYRVHIIQYKVNGQWRVESFEVK” returned a protease stability score of 0.88. In the case of “SEVEESAKIIAELWAHSVETGDEHTLRELMDPNTRFEYGDKERHGRENVTKYFLHFQKWLGFKHIRLEIEDSKAIGDKIKIDLTIKLHQGEKHDFVIVQLFVTKVNGRWVIHSMIVH”, the protease stability score amounted to 1.58. “SEVEESIEHAREIVTEVIKTGDEHHLNRLADPNTRVVFDGKDLHGRERLEEVLREMGVNHIEIKDMKYDSQGNKVHIDIDGRVNVGEKSHNTHLHWIVEKVNGRWLLSSIIIIIR”: the protease stability score is 0.886.

Consider “SEVEEWLRTLIHLIILAFRTGDEDQMRRNFDPNARVHVGDKDYHGRELFEEMMHHWRLHHIHIHDVRVQGDYVEADIKLDGEVNGKRFTTRVIIVFLKIDGKWQEKESEFV”, for which the protease stability score was 0.395. In the case of “SEVEHALHEILEILVKIMKTGNFEDLIRNFDPHVQLEFNGKRYHGREAEHFLRERFDHNRHHHVHEVRVQGDKVELHGKLIGEFNGREEEVHIDIIAHKINGRWIFKSVHFR”, the protease stability score is 2.15. “SEVEKHLHNVIELYIRALRTGDEERLRKLLDPHVRVRIGDKHLHGREDWWQHVTRYDHESVHDLKIDHVRVVGNKIEMIITHDIIIIVNGVNLRHSIETEVHARKVDGVWYLTELHHG” had a protease stability score of 0.075. Regarding “SEVEKMARHFVELLSKALLTGNWKTIKELVDPNDLLVVGDKIFHGWDVREEERKRFDHHVMDVKVDHHRDIDGRIEMETTLHLDVNINGVRFHFNHETEMIVRKVNGRWILKSETIR”, the protease stability score was found to be 0.087. On to “SEVERLLREILKLVQHAYETGDEETITELVDPHARMDINGKELHGRDMLHLLLRRIDHEHMRVEMKSVEIQGEWAISRGEEQVHVHVNGKKFDLVINSRVVLHKVDGQWVVRSLFYK”, for which the protease stability score is 0.787. In the case of “SEVHEQIEEIFREFMHMLLTGDWKRLTELADPHVRLEFDGREFHGREELVRRLLELGFKHQHLHDMRIHNFDGRVYMHTDTRVHVDGKHVIVRLELIVNKFNGQWYVHSLRIEVQ”, the protease stability score came out at 0.343. As to “SEVHRDLRKAVDYFEEVFRTGDEDKMNNLLDPNVRWIVNGKDLVGREKAIRRYHEHRKTLGVNHFETRIDDQEVYGNKATLHGELTIHVNGRDIHHETRLNVSKINGVWYIESFIID”, the protease stability score came out at 0.949.

“SEVNKHVEEISKLMVKFLLTGNEDLHKSLADPNYYSDVNGRHVIGRHHVEELWHLFLNEIRIDNIHIEDMKIQGEKAHIQGRIIGTVNGKHDELHATMIVVVIDGRIHSLKVEWR”: the protease stability score is 1. Take “SEVQELAERMFRFLLKVFETGNEDRLTELMDPNTLQIIGDKRNHGRDLYLRTVFEKVEHARMRIEFKEVHVINGQINVDGILWLEFDGRRIFFRVHLELTVVNGVLKEEHVTIH”: the protease stability score was 1.56. Consider “SEVQESIKEVIEIWNKALETGDWHRLTELADPDTRVEIGDKDIIGREAVTSELEKVTHKFKNLRIDEIHIERLEIQGEKVELHGIIRGTVNGQHRFYHTEFIIVKINGRWRLRVIYFL”, for which the protease stability score came out at 1.79.

Regarding “SEVQETIDHLVREVLHDFRTGDERRLEENMDPNAKSIFDGRESHGREKVSKMIHDFLEEMGFKHMELKEREVVGNKVEIHGRVIIGDKEFELHLHSQKIDGRWVLDSIRIE”, the protease stability score was determined as 0.52. Under “SEVREDIERILTQWSKIMETGDEHTAKRLADPHVKIEVDGRTSVGMETWMEFLRDLGFKVIHVRVHIEHVRDIDGKARVDIRLVIESNVGDKTERYEHETHMIIEKIDGRWVLTRILLK” stands 1.01; under “SEWDELLRHILEVMINSVLTGDEHRQLWMADPHAKVHFENHEVHGRDHWSHLVREHINEIRMRIHLHDEKTVGNFAVSDVRYREEVNGVELSTEIELILIVVDGRLKQIEFRYH”, -0.029.

“SEWDRLMKRIAEDITTALQTGDEDRMHELFDPHARMILLIGDFELHYHGMHEISRVLEEHLRRYDHLEWHIRHVDTQGNKVRVESEMRLIIGDKSETRDYRIILIVINGRNKSVEFRVH” had a protease stability score of 1.49. With “SEWEEELERLLREIIHSILTGDEKRLRELMDPNAKFHILVNGVEIDLMGMEHHSHWFREWLKHARINTVHIRHYDVVGEKARSDTELDMEIDGRRIRTRTELILVVIDGRVHSLEIRIK”, the protease stability score is 2.02. As to “SEWEEFMERMLELVIEVMKTGDFDRFRSLFDPHVKIRIIIGDKHHEFHGWLWLRTLIEKMGIDHLQINVRSYRIIGDKLEVDGELLSHYNGRTSHRTVHYHIVIINGRLHHITIEYH”, the protease stability score is 0.214.

In turn, “SEWEEISRKISRDWTEWLETGDFETFMNYVDPNARYRQGDKDLHGMETLHRYIYHMRMHIRIRRIDHQGDYILIDGELELRQGDKTHRFESIIYIIVIDGKLRRFEIRER” registered a protease stability score of 0.733.

Source of the values: the NTF2 design screens of Basanta et al. (2020).
